The supplement of paper PMC5998384

Columns and labels:
HeLa Kyoto [1] = assay: solubility in G1/S (NP-40 vs SDS abundance) (log2 ratio); higher = more soluble; settings: cell cycle stage: G1/S
HeLa Kyoto [2] = assay: solubility change mitosis vs G1/S (difference of NP-40 vs SDS log2 ratios) (log2 ratio difference); higher = more soluble in mitosis
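Wherever solubility change mitosis vs G1/S (difference of NP-40 vs SDS log2 ratios) is given: synchronized HeLa Kyoto cells (double thymidine block for G1/S, nocodazole release for mitosis), protein amounts in NP-40 versus SDS lysates quantified by mass spectrometry, three biological replicates.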
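Wherever solubility in G1/S (NP-40 vs SDS abundance) is given: HeLa Kyoto cells arrested at G1/S by double thymidine block, proteins quantified by TMT10plex mass spectrometry in mild NP-40 versus SDS extracts, three biological replicates.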

Chain of POMGNT1 (chain, as listed by the source): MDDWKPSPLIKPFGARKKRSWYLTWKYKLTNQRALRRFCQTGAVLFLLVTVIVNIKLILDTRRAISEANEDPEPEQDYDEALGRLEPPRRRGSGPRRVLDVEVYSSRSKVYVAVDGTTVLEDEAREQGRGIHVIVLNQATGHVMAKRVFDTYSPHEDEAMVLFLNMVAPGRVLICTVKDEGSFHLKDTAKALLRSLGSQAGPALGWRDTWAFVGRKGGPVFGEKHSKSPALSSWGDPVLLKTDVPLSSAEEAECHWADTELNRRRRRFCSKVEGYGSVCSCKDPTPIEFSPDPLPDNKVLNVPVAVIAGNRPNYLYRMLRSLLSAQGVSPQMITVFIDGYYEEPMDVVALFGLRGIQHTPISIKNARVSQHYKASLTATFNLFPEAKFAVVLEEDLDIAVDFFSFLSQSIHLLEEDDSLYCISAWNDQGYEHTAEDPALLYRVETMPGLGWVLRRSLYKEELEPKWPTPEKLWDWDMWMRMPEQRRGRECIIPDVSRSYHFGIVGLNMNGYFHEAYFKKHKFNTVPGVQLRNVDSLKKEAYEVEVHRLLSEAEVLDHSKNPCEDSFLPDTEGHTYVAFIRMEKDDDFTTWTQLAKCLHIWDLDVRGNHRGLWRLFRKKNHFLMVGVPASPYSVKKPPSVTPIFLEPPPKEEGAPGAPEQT

Substance | solubility in G1/S (log2) (HeLa Kyoto [1]) | solubility change mitosis (log2) (HeLa Kyoto [2])
MSSEESYRAILRYLTNEREPYAPGTEGNVKRKIRKAAACYVVRGGTLYYQRRQRHRKTFAELEVVLQPERRRDLIEAAHLGPGGTHHTRHQTWHYLSKTYWWRGILKQVKDYIKQCSKCQEKLDRSRPISDVSEMLEELGLDLESGEESNESEDDLSNFTSSPTTASKPAKKKPVSKHELVFVDTKGVVKRSSPKHCQAVLKQLNEQRLSNQFCDVTLLIEGEEYKAHKSVLSANSEYFRDLFIEKGAVSSHEAVVDLSGFCKASFLPLLEFAYTSVLSFDFCSMADVAILARHLFMSEVLEICESVHKLMEEKQLTVYKKGEVQTVASTQDLRVQNGGTAPPVASSEGTTTSLPTELGDCEIVLLVNGELPEAEQNGEVGRQPEPQVSSEAESALSSVGCIADSHPEMESVDLITKNNQTELETSNNRENNTVSNIHPKLSKENVISSSPEDSGMGNDISAEDICAEDIPKHRQKVDQPLKDQENLVASTAKTDFGPDDDTYRSRLRQRSVNEGAYIRLHKGMEKKLQKRKAVPKSAVQQVAQKLVQRGKKMKQPKRDAKENTEEASHKCGECGMVFQRRYALIMHKLKHERARDYKCPLCKKQFQYSASLRAHLIRHTRKDAPSSSSSNSTSNEASGTSSEKGRTKREFICSICGRTLPKLYSLRIHMLKHTGVKPHACQVCGKTFIYKHGLKLHQSLHQSQKQFQCELCVKSFVTKRSLQEHMSIHTGESKYLCSVCGKSFHRGSGLSKHFKKHQPKPEVRGYHCTQCEKSFFEARDLRQHMNKHLGVKPFQCQFCDKCYSWKKDWYSHVKSHSVTEPYRCNICGKEFYEKALFRRHVKKATHGKKGRAKQNLERVCEKCGRKFTQLREYRRHMNNHEGVKPFECLTCGVAWADARSLKRHVRTHTGERPYVCPVCSEAYIDARTLRKHMTKFHRDYVPCKIMLEKDTLQFHNQGTQVAHAVSILTAGMQEQESSGPQELETVVVTGETMEALEAVAATEEYPSVSTLSDQSIMQVVNYVLAQQQGQKLSEVAEAIQTVKVEVAHISGGE [ZBTB11] | -0.621 | 0.267
MPLPGGLWWLLCCRRGFTLLHRDYGDGELSGDGDEDEDEETFELRTPSPAGGGRGPLEVTLTQPVRSGPVSNRLQSWEETWSLIPEKGLPEDDPDIVVKGWLYREPRGGGARPWLPPRRAWFVLTRDSLDQFSSSGKGARRLGSLVLTSLCSVTGPERRRKETGLWSVTVSGRKHSVRLCSPRQAEAERWGVALREVIASKAPLETPTQLLLRDIQESCGDPEAVALIYLRNPILRHTSGALYAPLLPLPYGVSAPGPGYAPLREEAVRLFLALQALEGARRPGPLMQGVLQTCRDLPALRDELFLQLAKQTSGPAGPPGLPATQDPAALRYWQLLTCMSCTFRPGGAVRGHLLGHLERTEQALPDSELAEYARFIRKALGRTRGRELVPSLAEISALSQRQELLCTVHCPGAGACAVAIDSHTTAGEVARELVGRLGLARSRNAFALYEQRGAQERALAGGTLVADVLTRFENLAAEEAGLEDSPDSGWRLCLRLHGPLHPEGLSPDGHELPFLFEQAHALLLRGRPPPPDDTLRALAALRLQSLQRDFSPRVPLPRLDRLLPPPAPPREDPPRPTPRPPPSAALLAGALWSPGLAKRRAERARRGGAGRTAGSIAREGGGGAGTAAAVLGGWKRLRGMGRAEAMAAYLALAAQCPGFGAARYDVLELSTEPGRGAPQKLCLGLGAKAMSLSRPGETEPIHSVSYGHVAACQLMGPHTLALRVGESQLLLQSPQVEEIMQLVNAYLANPSPERPCSSSSPPCQDLPDTSPPSQRPGLDEPQGQSGCLGQLQD [PLEKHH3] | 0.00769 | -0.16
MVVPSLKLQDLIEEIRGAKTQAQEREVIQKECAHIRASFRDGDPVHRHRQLAKLLYVHMLGYPAHFGQMECLKLIASSRFTDKRVGYLGAMLLLDERHDAHLLITNSIKNDLSQGIQPVQGLALCTLSTMGSAEMCRDLAPEVEKLLLQPSPYVRKKAILTAVHMIRKVPELSSVFLPPCAQLLHERHHGILLGTITLITELCERSPAALRHFRKVVPQLVHILRTLVTMGYSTEHSISGVSDPFLQVQILRLLRILGRNHEESSETMNDLLAQVATNTDTSRNAGNAVLFETVLTIMDIRSAAGLRVLAVNILGRFLLNSDRNIRYVALTSLLRLVQSDHSAVQRHRPTVVECLRETDASLSRRALELSLALVNSSNVRAMMQELQAFLESCPPDLRADCASGILLAAERFAPTKRWHIDTILHVLTTAGTHVRDDAVANLTQLIGGAQELHAYSVRRLYNALAEDISQQPLVQVAAWCIGEYGDLLLAGNCEEIEPLQVDEEEVLALLEKVLQSHMSLPATRGYALTALMKLSTRLCGDNNRIRQVVSIYGSCLDVELQQRAVEYDTLFRKYDHMRAAILEKMPLVERDGPQADEEAKESKEAAQLSEAAPVPTEPQASQLLDLLDLLDGASGDVQHPPHLDPSPGGALVHLLDLPCVPPPPAPIPDLKVFEREGVQLNLSFIRPPENPALLLITITATNFSEGDVTHFICQAAVPKSLQLQLQAPSGNTVPARGGLPITQLFRILNPNKAPLRLKLRLTYDHFHQSVQEIFEVNNLPVESWQ [AP1G2] | -0.0347 | -0.154
MGLKAAQKTLFPLRSIDDVVRLFAAELGREEPDLVLLSLVLGFVEHFLAVNRVIPTNVPELTFQPSPAPDPPGGLTYFPVADLSIIAALYARFTAQIRGAVDLSLYPREGGVSSRELVKKVSDVIWNSLSRSYFKDRAHIQSLFSFITGTKLDSSGVAFAVVGACQALGLRDVHLALSEDHAWVVFGPNGEQTAEVTWHGKGNEDRRGQTVNAGVAERSWLYLKGSYMRCDRKMEVAFMVCAINPSIDLHTDSLELLQLQQKLLWLLYDLGHLERYPMALGNLADLEELEPTPGRPDPLTLYHKGIASAKTYYRDEHIYPYMYLAGYHCRNRNVREALQAWADTATVIQDYNYCREDEEIYKEFFEVANDVIPNLLKEAASLLEAGEERPGEQSQGTQSQGSALQDPECFAHLLRFYDGICKWEEGSPTPVLHVGWATFLVQSLGRFEGQVRQKVRIVSREAEAAEAEEPWGEEAREGRRRGPRRESKPEEPPPPKKPALDKGLGTGQGAVSGPPRKPPGTVAGTARGPEGGSTAQVPAPTASPPPEGPVLTFQSEKMKGMKELLVATKINSSAIKLQLTAQSQVQMKKQKVSTPSDYTLSFLKRQRKGL [MEN1] | -0.472 | 0.197
MCTKMEQPFYHDDSYTATGYGRAPGGLSLHDYKLLKPSLAVNLADPYRSLKAPGARGPGPEGGGGGSYFSGQGSDTGASLKLASSELERLIVPNSNGVITTTPTPPGQYFYPRGGGSGGGAGGAGGGVTEEQEGFADGFVKALDDLHKMNHVTPPNVSLGATGGPPAGPGGVYAGPEPPPVYTNLSSYSPASASSGGAGAAVGTGSSYPTTTISYLPHAPPFAGGHPAQLGLGRGASTFKEEPQTVPEARSRDATPPVSPINMEDQERIKVERKRLRNRLAATKCRKRKLERIARLEDKVKTLKAENAGLSSTAGLLREQVAQLKQKVMTHVSNGCQLLLGVKGHAF [JUNB] | 0.0721 | 0.346
CCDC88C | -0.065 | -0.288
MAQAHRTPQPRAAPSQPRVFKLVLLGSGSVGKSSLALRYVKNDFKSILPTVGCAFFTKVVDVGATSLKLEIWDTAGQEKYHSVCHLYFRGANAALLVYDITRKDSFLKAQQWLKDLEEELHPGEVLVMLVGNKTDLSQEREVTFQEGKEFADSQKLLFMETSAKLNHQVSEVFNTVAQELLQRSDEEGQALRGDAAVALNKGPARQAKCCAH [RAB17] | 0.138 | -0.134
POMGNT1 | -0.257 | -0.0514
MEVEDSGGVVLTAYHSYARAQPPNAESRCAPRAAASHPLSRKSIPRCRRINRMLSNESLHPPAFSRSNSEASVDSASMEDFWREIESIKDSSMGGQEEPPPAEVTPVDEGELEAEWLQDVGLSTLISGDEEEDGKALLSTLTRTQAAAVQKRYHTYTQTMRKKDKQSIRDVRDIFGVSESPPRDTCGNHTNQLDGTKEERELPRVIKTSGSMPDDASLNSTTLSDASQDKEGSFAVPRSDSVAILETIPVLPVHSNGSPEPGQPVQNAISDDDFLEKNIPPEAEELSFEVSYSEMVTEALKRNKLKKSEIKKEDYVLTKFNVQKTRFGLTEAGDLSAEDMKKIRHLSLIELTAFFDAFGIQLKRNKTEKVKGRDNGIFGVPLTVLLDGDRKKDPGVKVPLVLQKFFEKVEESGLESEGIFRLSGCTAKVKQYREELDAKFNADKFKWDKMCHREAAVMLKAFFRELPTSLFPVEYIPAFISLMERGPHVKVQFQALHLMVMALPDANRDAAQALMTFFNKVIANESKNRMSLWNISTVMAPNLFFSRSKHSDYEELLLANTAAHIIRLMLKYQKILWKVPSFLITQVRRMNEATMLLKKQLPSVRKLLRRKTLERETASPKTSKVLQKSPSARRMSDVPEGVIRVHAPLLSKVSMAIQLNNQTKAKDILAKFQYENSHGSSECIKIQNQRLYEIGGNIGEHCLDPDAYILDVYRINPQAEWVIKPQQSS [ARHGAP28] | 0.167 | 0.00445
MVRDSMAAAFRPSNRVLLQALQILVYPGVGGSGSVSCRCPLGAKRYLLTDNVVKLKEFQQKKVAVACNLSGTKETYFRNLKKKLTQNKLILKGELITLLHLCESRDHVELAKNVIYRYHAENKNFTLGEYKFGPLFVRLCYELDLEESAVELMKDQHLRGFFSDSTSFNILMDMLFIKGKYKSALQVLIEMKNQDVKFTKDTYVLAFAICYKLNSPESFKICTTLREEALLKGEILSRRASCFAVALALNQNEMAKAVSIFSQIMNPESIACINLNIIIHIQSNMLENLIKTLKNAAEGNLSKFVKRHVFSEEVLAKVREKVKDVPALVAKFDEIYGTLHITGQVTTDSLDAVLCHTPRDRKSHTLLLNKRMVSRRTFQPLSQSLLAE [PTCD2] | -0.0152 | 0.106
MDRFLVKGAQGGLLRKQEEQEPTGEEPAVLGGDKESTRKRPRREAPGNGGHSAGPSWRHIRAEGLDCSYTVLFGKAEADEIFQELEKEVEYFTGALARVQVFGKWHSVPRKQATYGDAGLTYTFSGLTLSPKPWIPVLERIRDHVSGVTGQTFNFVLINRYKDGCDHIGEHRDDERELAPGSPIASVSFGACRDFVFRHKDSRGKSPSRRVAVVRLPLAHGSLLMMNHPTNTHWYHSLPVRKKVLAPRVNLTFRKILLTKK [ALKBH2] | 0.0785 | 0.0123
MSTFRQEDVEDHYEMGEELGSGQFAIVRKCRQKGTGKEYAAKFIKKRRLSSSRRGVSREEIEREVNILREIRHPNIITLHDIFENKTDVVLILELVSGGELFDFLAEKESLTEDEATQFLKQILDGVHYLHSKRIAHFDLKPENIMLLDKNVPNPRIKLIDFGIAHKIEAGNEFKNIFGTPEFVAPEIVNYEPLGLEADMWSIGVITYILLSGASPFLGETKQETLTNISAVNYDFDEEYFSNTSELAKDFIRRLLVKDPKRRMTIAQSLEHSWIKAIRRRNVRGEDSGRKPERRRLKTTRLKEYTIKSHSSLPPNNSYADFERFSKVLEEAAAAEEGLRELQRSRRLCHEDVEALAAIYEEKEAWYREESDSLGQDLRRLRQELLKTEALKRQAQEEAKGALLGTSGLKRRFSRLENRYEALAKQVASEMRFVQDLVRALEQEKLQGVECGLR [DAPK3] | -0.721 | -0.0326
